pKd: −log10 of the molar value.
Target: QL9, nonameric variant of p2Ca (2-oxoglutarate dehydrogenase); residues not printed peptide on H-2Ld (mouse)
Experiment: value cited from Manning et al. 1999; single-chain

pKd: 5.49
Substance: 2C TCR

From patent publication US20020058253A1
